Measured values reported in patent publication US20130280271A1 (INSTITUTE FOR CANCER RESEARCH, published 2013).

Target: the molecule itself
Assay: static light scattering; self-association
Protocol: Light scattering analysis. Measurements were made with a Protein Solutions DynaPro Temperature Controlled Microsampler. Samples were adjusted to the desired concentration and particulates removed by filtration through a 0.2μ microcon device, and subsequent clearing by brief centrifugation at 14,000×g and 4° C. The protein concentration was then determined directly using absorbance at 280 nm and a calculated molar extinction coefficient, taking the average of 3 readings. All samples were analyzed under conditions of 10° C. in a buffer of 25 mM BisTris pH 6.1, 500 mM NaCl, 1 mM DTT, 0.1 mM EDTA, 5% glycerol. The molecular mass (MW I) was calculated from the static light scattering measurements (at least 300 acquisitions per protein sample) using the DynaPro software.

B1: ASV IN(1-207) (enzyme)
chain: PLREAKDLHTALHIGPRALSKACNISMQQAREVVQTCPHCNSAPALEAGVNPRGLGPLQIWQTDFTLEPRMAPRSWLAVTVDTASSAIVVTQHGRVTSVAAQHHWATAIAVLGRPKAIKTDNGSCFTSKSTREWLARWGIAHTTGIPGNSQGQAMVERANRLLKDKIRVLAEGDGFMKRIPTSKQGELLAKAMYALNHFERGENTKT
notes: also called IN fragment that lacks the CTD
B1: no binding (tested: 1.5 mg/ml).
